This note sets out measurements from patent publication US7157259B2, “Murine lecithin-cholesterol acyltransferase protein” (Takeda Pharmaceutical Company Limited, priority 1997, dated 2007).

The target of data set [1] is T1, human LCAT-like protein/FLAG fusion protein (Homo sapiens, UniProt Q8NCC3).
T1 construct: made in house; host or cells: baculovirus (Bac-To-Bac); secreted into the culture supernatant
T1 sequence (Q8NCC3 34-412): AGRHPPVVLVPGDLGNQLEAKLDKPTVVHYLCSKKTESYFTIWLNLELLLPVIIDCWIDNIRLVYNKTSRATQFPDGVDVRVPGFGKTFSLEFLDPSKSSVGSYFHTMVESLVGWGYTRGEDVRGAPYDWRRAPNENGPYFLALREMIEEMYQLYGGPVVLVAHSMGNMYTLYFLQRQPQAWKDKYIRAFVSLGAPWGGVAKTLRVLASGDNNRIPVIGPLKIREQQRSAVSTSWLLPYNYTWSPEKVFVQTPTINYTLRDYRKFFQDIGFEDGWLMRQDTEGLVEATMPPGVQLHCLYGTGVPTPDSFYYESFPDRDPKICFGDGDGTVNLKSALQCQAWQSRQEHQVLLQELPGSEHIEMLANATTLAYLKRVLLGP
Put plainly: Influence of DFP and DTNB on esterase activity assayed with PNPB. Type of data set: biochemical. The settings on record: inhibitor pre-incubated 25° C. for 1 hour before substrate; PNPB 500 μM; fusion protein 3.4 μg/ml; FIG. 18.

A short description of data set [2]: Esterase activity assay using the fatty acid ester p-nitrophenyl butyrate (PNPB). Format: biochemical. Here is the method: Assays were carried out in accordance with the method of Bonelli, F. S. and Jonas, A. [Journal of Biological Chemistry, 264, 14723–14728, 1989]. Thus, to the reaction buffer (10 mM Tris, pH 7.4, 150 mM NaCl, 0.01% EDTA, 1 mM NaN3) was added a graded solution of p-nitrophenyl butyrate (PNPB) in acetonitrile (final concentration:5 mM–50 μM) as the substrate. Then, the human LCAT-like protein/FLAG fusion protein obtained in Example 9 was added (final concentration:3.4 μg/ml) to make 1 ml. The mixture was incubated at 37° C. for 20 minutes and the absorbance at 400 nm was measured at 2-minute intervals. From the percent changes in absorbance at the respective substrate concentrations, initial velocity was calculated, and according to the Lineweaver-Burk method, Vmax and Km were calculated (FIG. 16). […] Using 50 μl of the semi-purified enzyme solution of fractions 6 and 7 (4 ml) obtained in Example 12 (FIG. 14), a similar activity assay was carried out at a substrate concentration of 100 μM.

[3] abbreviates: PNPB 5 mM–50 μM, protein 3.4 μg/ml, 37° C., compared with human plasma LCAT, FIG. 16.

As to `O=C(O)c1cc(SSc2ccc([N+](=O)[O-])c(C(=O)O)c2)ccc1[N+](=O)[O-]` [DTNB, 5,5′-dithiobis(2-nitrobenzoic acid)], in data set [1], the “inhibition of esterase activity” value is listed as “inhibited”.

B1: human LCAT-like protein/FLAG fusion protein: human LCAT-like protein with FLAG peptide fused at C-terminus, expressed in insect cells, purified on anti-FLAG M2 affinity column (protein)
chain: AGRHPPVVLVPGDLGNQLEAKLDKPTVVHYLCSKKTESYFTIWLNLELLLPVIIDCWIDNIRLVYNKTSRATQFPDGVDVRVPGFGKTFSLEFLDPSKSSVGSYFHTMVESLVGWGYTRGEDVRGAPYDWRRAPNENGPYFLALREMIEEMYQLYGGPVVLVAHSMGNMYTLYFLQRQPQAWKDKYIRAFVSLGAPWGGVAKTLRVLASGDNNRIPVIGPLKIREQQRSAVSTSWLLPYNYTWSPEKVFVQTPTINYTLRDYRKFFQDIGFEDGWLMRQDTEGLVEATMPPGVQLHCLYGTGVPTPDSFYYESFPDRDPKICFGDGDGTVNLKSALQCQAWQSRQEHQVLLQELPGSEHIEMLANATTLAYLKRVLLGP
modifications: left off: small tags and cut ends
In the case of B1, in data set [2] (setting [3]), the “Km (Lineweaver-Burk)” value is on record as “agreed with the values of human plasma LCAT on an order basis” and the “Vmax (Lineweaver-Burk)” value was “agreed with the values of human plasma LCAT on an order basis”.

B2: human LCAT-like protein: recombinant human LCAT-like protein expressed in High Five insect cells, semi-purified on Phenyl-Sepharose HP (fractions 6 and 7) (protein, UniProt Q8NCC3 34-412, looked up)
Lysosomal phospholipase A and …: AGRHPPVVLVPGDLGNQLEAKLDKPTVVHYLCSKKTESYFTIWLNLELLLPVIIDCWIDNIRLVYNKTSRATQFPDGVDVRVPGFGKTFSLEFLDPSKSSVGSYFHTMVESLVGWGYTRGEDVRGAPYDWRRAPNENGPYFLALREMIEEMYQLYGGPVVLVAHSMGNMYTLYFLQRQPQAWKDKYIRAFVSLGAPWGGVAKTLRVLASGDNNRIPVIGPLKIREQQRSAVSTSWLLPYNYTWSPEKVFVQTPTINYTLRDYRKFFQDIGFEDGWLMRQDTEGLVEATMPPGVQLHCLYGTGVPTPDSFYYESFPDRDPKICFGDGDGTVNLKSALQCQAWQSRQEHQVLLQELPGSEHIEMLANATTLAYLKRVLLGP
For the molecule B2, in data set [2] (50 μl semi-purified enzyme solution of fractions 6 and 7 of Example 12, PNPB 100 μM, FIG. 17), the esterase activity entry is “confirmed to have esterase activity”.
